# Data from patent publication US12329823B2 (The Scripps Research Institute, priority 2021, dated 2025).
# “And” between values parts separate entries of the source, which are not always exact repeats. Identical values can stand only once. Like-named read-outs stand apart in the source and are kept apart here. Numbered stars: 1 amine (or outer) side, 2 acyl side, 3 side chain; on linkers, the order of the positions; unused ones are H or OH. Bridge positions count the residues as written; N and C are the ends. Square brackets hold non-standard residues; d marks the D form. Peptide text beside a SMILES is read from it. X2 = O=C(O)CCCCCCCCCCCCCCCCCCC(=O)N[C@@H](CCCCNC(=O)CCOCCOCCNC(=O)CCOCCOCCNC(=O)CCC(=O)N(CCNC(=O)C[*:1])CCNC(=O)C[*:2])C(=O)O; Aib = CC(C)(N)C(=O)O
# Legend:
# human GIPR = biological target: T1, human GIPR (Homo sapiens, UniProt P48546); assay: In vitro receptor activation reporter assay (CRE-Luc, HEK293-GIPR-CRE cells; receptor-mediated cAMP synthesis); assay type: cell-based; settings: unnumbered table
# T1 construct: expressed in transfected cells; host or cells: HEK293 (CRE-HEK293, HEK293-GIPR-CRE)
# T1 sequence (P48546 22-466): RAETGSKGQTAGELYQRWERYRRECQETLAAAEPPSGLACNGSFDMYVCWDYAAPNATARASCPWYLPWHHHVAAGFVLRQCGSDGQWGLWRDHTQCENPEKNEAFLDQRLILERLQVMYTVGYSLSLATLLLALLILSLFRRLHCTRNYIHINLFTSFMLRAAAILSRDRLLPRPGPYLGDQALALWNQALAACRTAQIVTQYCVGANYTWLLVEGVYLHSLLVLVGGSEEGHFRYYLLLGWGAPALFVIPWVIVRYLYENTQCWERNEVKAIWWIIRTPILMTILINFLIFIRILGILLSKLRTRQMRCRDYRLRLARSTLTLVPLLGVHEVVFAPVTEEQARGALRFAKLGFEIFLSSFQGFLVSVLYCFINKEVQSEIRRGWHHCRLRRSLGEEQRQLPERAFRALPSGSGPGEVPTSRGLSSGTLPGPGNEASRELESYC
# Experimental: HEK293 cells were infected with lentivirus encoding firefly luciferase gene under the control of cAMP responsive element (CRE) promoter (Qiagen, The Netherlands) and then were selected using 1 μg mL^−1 puromycin (Life Technologies, Carlsbad) for 1 week. The surviving cells (referred to as CRE-HEK293) were expanded and then transfected with a G418 selective mammalian expression plasmid encoding human GLP-1R or GIPR. In brief, GLP-1R or GIPR plasmid was transfected into CRE-HEK293 cells using Lipofectamine 2000 and selected with 400 μg mL^−1 Geneticin (Life Technologies, Carlsbad, CA). Single colony stable cell line overexpressing CRE-luciferase and GLP-1R or GIPR (HEK293-GLP-1R-CRE or HEK293-GIPR-CRE) was then established for in vitro activity assay.
# The EC50 of each peptide was determined using GraphPad Prism 6 software (GraphPad, San Diego, CA).
# [1] = Pharmacokinetics in CD-1 mouse, I.V. or S.C. 1 mg/kg, plasma concentration by LC-MS; settings: individual animals; for AUC(0-inf): AUCINF_pred; for MRT inf / MRT last: mouse, in vivo; for MRT inf: MRTINF_pred; for MRT last: MRTlast;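 on all read-outs here: peptide levels in plasma quantified by LC-MS across multiple sampling times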
# Experimental: The peptide plasma concentration at various time points was determined using LC-MS.
# [2] = average of runs, read-out: EC50 GIPR average
# [3] = Table 15, I.V. 1 mg/kg, 1 mg/kg
# [4] = iv, 1 mg/kg, Table 15, I.V. 1 mg/kg
compound,measurement,setting,value
"CC[C@H](C)[C@H](NC(=O)[C@H](CC(C)C)NC(=O)[C@H](Cc1c[nH]c2ccccc12)NC(=O)[C@H](CC(N)=O)NC(=O)[C@@H](NC(=O)[C@H](Cc1ccccc1)NC(=O)[C@@H]1CSCC(=O)NCCN(C(=O)CCC(=O)NCCOCCOCCC(=O)NCCOCCOCCC(=O)NCCCC[C@H](NC(=O)CCCCCCCCCCCCCCCCCCC(=O)O)C(=O)O)CCNC(=O)CSC[C@H](NC(=O)[C@H](Cc2ccc(O)cc2)NC(=O)[C@@H](NC(=O)[C@H](CO)NC(=O)[C@H](Cc2ccc(O)cc2)NC(=O)[C@H](CC(=O)O)NC(=O)[C@H](CO)NC(=O)[C@@H](NC(=O)[C@H](Cc2ccc(O)cc2)NC(=O)[C@@H](NC(=O)CNC(=O)[C@H](CCC(=O)O)NC(=O)C(C)(C)NC(=O)[C@@H](N)Cc2ccc(O)cc2)[C@@H](C)O)[C@@H](C)O)[C@@H](C)CC)C(=O)N[C@@H](CC(=O)O)C(=O)N[C@@H](CCCCN)C(=O)N[C@@H](CCC(N)=O)C(=O)N[C@@H](C)C(=O)N[C@@H](C)C(=O)NC(C)(C)C(=O)N1)C(C)C)C(=O)N[C@@H](C)C(=O)NCC(=O)NCC(=O)N1CCC[C@H]1C(=O)N[C@@H](CO)C(=O)N[C@@H](CO)C(=O)NCC(=O)N[C@@H](C)C(=O)N1CCC[C@H]1C(=O)N1CCC[C@H]1C(=O)N1CCC[C@H]1C(=O)N[C@@H](CO)C(N)=O [6Y, 27I, C(14-21)-C20L5A, YAibEGT-YTSDY-SIYXD-KQAAAib-XFVNW-LIAGG-PSSGA-PPPS-NH2 (where each X is C) (SEQ ID NO: 58)] (H-Y[Aib]EGTYTSDYSIYCDKQAA[Aib]CFVNWLIAGGPSSGAPPPS-NH2; linker 14-21 via X2)",EC50,human GIPR; [2],0.56 nM
same,EC50,"human GIPR; run 03/26, read-out: EC50 GIPR 03/26",0.6 nM
"CC[C@H](C)[C@H](NC(=O)[C@H](CC(C)C)NC(=O)[C@H](Cc1c[nH]c2ccccc12)NC(=O)[C@@H]1CSCC(=O)NCCN(C(=O)CCC(=O)NCCOCCOCCC(=O)NCCOCCOCCC(=O)NCCCC[C@H](NC(=O)CCCCCCCCCCCCCCCCCCC(=O)O)C(=O)O)CCNC(=O)CSC[C@H](NC(=O)[C@H](CCCCN)NC(=O)[C@H](CC(=O)O)NC(=O)[C@H](CC(C)C)NC(=O)[C@H](Cc2ccc(O)cc2)NC(=O)[C@@H](NC(=O)[C@H](CO)NC(=O)[C@H](Cc2ccc(O)cc2)NC(=O)[C@H](CC(=O)O)NC(=O)[C@H](CO)NC(=O)[C@@H](NC(=O)[C@H](Cc2ccc(O)cc2)NC(=O)[C@@H](NC(=O)CNC(=O)[C@H](CCC(=O)O)NC(=O)C(C)(C)NC(=O)[C@@H](N)Cc2ccc(O)cc2)[C@@H](C)O)[C@@H](C)O)[C@@H](C)CC)C(=O)N[C@@H](C)C(=O)N[C@@H](C)C(=O)NC(C)(C)C(=O)N[C@@H](CCC(=O)O)C(=O)N[C@@H](Cc2ccccc2)C(=O)N[C@@H](C(C)C)C(=O)N1)C(=O)N[C@@H](C)C(=O)NCC(=O)NCC(=O)N1CCC[C@H]1C(=O)N[C@@H](CO)C(=O)N[C@@H](CO)C(=O)NCC(=O)N[C@@H](C)C(=O)N1CCC[C@H]1C(=O)N1CCC[C@H]1C(=O)N1CCC[C@H]1C(=O)N[C@@H](CO)C(N)=O [6Y, 27I, C(17-24)-C20L5A, YAibEGT-YTSDY-SIYLD-KXAAAib-EFVXW-LIAGG-PSSGA-PPPS-NH2 (where each X is C) (SEQ ID NO: 59)] (H-Y[Aib]EGTYTSDYSIYLDKCAA[Aib]EFVCWLIAGGPSSGAPPPS-NH2; linker 17-24 via X2)",EC50,human GIPR; [2],0.26 nM
"CC[C@H](C)[C@H](NC(=O)[C@H](CC(C)C)NC(=O)[C@H](Cc1c[nH]c2ccccc12)NC(=O)[C@H](CC(N)=O)NC(=O)[C@@H](NC(=O)[C@H](Cc1ccccc1)NC(=O)[C@@H]1CSCC(=O)NCCN(C(=O)CCC(=O)NCCOCCOCCC(=O)NCCOCCOCCC(=O)NCCCC[C@H](NC(=O)CCCCCCCCCCCCCCCCC(=O)O)C(=O)O)CCNC(=O)CSC[C@H](NC(=O)[C@H](Cc2ccc(O)cc2)NC(=O)[C@@H](NC(=O)[C@H](CO)NC(=O)[C@H](Cc2ccc(O)cc2)NC(=O)[C@H](CC(=O)O)NC(=O)[C@H](CO)NC(=O)[C@@H](NC(=O)[C@H](Cc2ccccc2)NC(=O)[C@@H](NC(=O)CNC(=O)[C@H](CCC(=O)O)NC(=O)C(C)(C)NC(=O)[C@@H](N)Cc2ccc(O)cc2)[C@@H](C)O)[C@@H](C)O)[C@@H](C)CC)C(=O)N[C@@H](CC(=O)O)C(=O)N[C@@H](CCCCN)C(=O)N[C@@H](CCC(N)=O)C(=O)N[C@@H](C)C(=O)N[C@@H](C)C(=O)NC(C)(C)C(=O)N1)C(C)C)C(=O)N[C@@H](C)C(=O)NCC(=O)NCC(=O)N1CCC[C@H]1C(=O)N[C@@H](CO)C(=O)N[C@@H](CO)C(=O)NCC(=O)N[C@@H](C)C(=O)N1CCC[C@H]1C(=O)N1CCC[C@H]1C(=O)N1CCC[C@H]1C(=O)N[C@@H](CO)C(N)=O [mCMZ370, YAibEGT-FTSDY-SIYXD-KQAAAib-XFVNW-LIAGG-PSSGA-PPPS-NH2 (where each X is C) (SEQ ID NO: 52)]",AUC,"[1]; CD-1, mouse, plasma, iv, 1 mg/kg, AUC0_24, Table 15, I.V. 1 mg/kg",121000 ng·h/mL
same,AUC(0-t),"[1]; CD-1, mouse, plasma, iv, 1 mg/kg, AUC last, Table 15, I.V. 1 mg/kg",148000 ng·h/mL
same,AUC(0-inf),"[1]; CD-1, mouse, plasma, iv, 1 mg/kg, Table 15, I.V. 1 mg/kg",149000 ng·h/mL
same,C0,"[1]; CD-1, mouse, plasma, iv, 1 mg/kg, C0, Table 15, I.V. 1 mg/kg",15200 ng/mL
same,Cmax,"[1]; CD-1, mouse, plasma, iv, 1 mg/kg, Cmax, Table 15, I.V. 1 mg/kg",14600 ng/mL
same,Tmax,"[1]; CD-1, mouse, plasma, iv, 1 mg/kg, Tmax, Table 15, I.V. 1 mg/kg",0.08 h
same,Vd,"[1]; CD-1, mouse, plasma, iv, 1 mg/kg, Vss_pred, Table 15, I.V. 1 mg/kg",0.098 L/kg
same,Vd,"[1]; CD-1, mouse, plasma, iv, 1 mg/kg, Vz_pred, Table 15, I.V. 1 mg/kg",0.085 L/kg
same,half-life,"[1]; CD-1, mouse, plasma, iv, 1 mg/kg, t1/2, Table 15, I.V. 1 mg/kg",8.82 h
same,AUC,"[1]; CD-1, mouse, plasma, sc, 1 mg/kg, AUC0_24, CD-1 mouse, S.C.",41900 ng·h/mL
same,AUC(0-inf),"[1]; CD-1, mouse, plasma, sc, 1 mg/kg, S.C.",53500 ng·h/mL
same,AUC,"[1]; CD-1, mouse, plasma, sc, 1 mg/kg, AUCall, S.C.",53300 ng·h/mL
same,CL/F,"[1]; CD-1, mouse, plasma, sc, 1 mg/kg, Cl_Fpred, S.C.",0.24 mL/min/kg
same,Cmax,"[1]; CD-1, mouse, plasma, sc, 1 mg/kg, Cmax, S.C.",2460 ng/mL
same,half-life,"[1]; CD-1, mouse, plasma, sc, 1 mg/kg, t1/2, CD-1 mouse, S.C.",7.5 h
same,AUC0_24,"[1]; CD-1 mouse, S.C., 1 mg/kg",44691 ng·h/mL and 63474 ng·h/mL
same,AUCINF_pred,"[1]; CD-1 mouse, S.C., 1 mg/kg",68240 ng·h/mL and 80676 ng·h/mL
same,AUC_% Extrap_pred,"[1]; CD-1 mouse, S.C., 1 mg/kg",0.26% and 0.31% and 0.19%
same,AUCall,"[1]; CD-1 mouse, S.C., 1 mg/kg",68029 ng·h/mL and 80522 ng·h/mL
same,AUMC_% Extrap_pred,"[1]; CD-1 mouse, S.C., 1 mg/kg",1.32% and 1.23% and 0.99%
same,Cl_Fpred,"[1]; CD-1 mouse, S.C., 1 mg/kg",0.06 mL/min/kg
same,Cmax,"[1]; CD-1 mouse, S.C., 1 mg/kg",2221 ng/mL and 3993 ng/mL
same,MRTINF_pred,"[1]; CD-1 mouse, S.C., 1 mg/kg",20.64 h and 15.82 h
same,MRTlast,"[1]; CD-1 mouse, S.C., 1 mg/kg",20.45 h and 15.69 h
same,Tlast,"[1]; CD-1 mouse, S.C., 1 mg/kg",72 h
same,Tmax,"[1]; CD-1 mouse, S.C., 1 mg/kg",7 h and 24 h and 3 h
same,V_F_pred,"[1]; CD-1 mouse, S.C., 1 mg/kg",0.2 L/kg and 0.15 L/kg and 0.13 L/kg
same,t1/2,"[1]; CD-1 mouse, S.C., 1 mg/kg",7.06 h and 7.05 h
same,Tlast,"[1]; Table 15, I.V. 1 mg/kg",72 h
same,AUC0_24,[1]; [3],107856 ng·h/mL and 85158 ng·h/mL
same,AUC last,[1]; [3],127615 ng·h/mL and 102411 ng·h/mL
same,AUCINF_pred,[1]; [3],128099 ng·h/mL and 103033 ng·h/mL
same,AUC_% Extrap_pred,[1]; [3],0.39% and 0.38% and 0.6%
same,AUMC_% Extrap_pred,[1]; [3],2.24% and 2.36% and 3.79%
same,C0,[1]; [3],8380 ng/mL and 10006 ng/mL
same,Cmax,[1]; [3],8230 ng/mL and 9829 ng/mL
same,MRTINF_pred,[1]; [3],13.56 h and 13.74 h
same,MRTlast,[1]; [3],13.29 h and 13.3 h
same,Vss_pred,[1]; [3],0.106 L/kg and 0.133 L/kg
same,Vz_pred,[1]; [3],0.099 L/kg and 0.138 L/kg
same,t1/2,[1]; [3],9.87 h
same,MRT inf,[1]; [4],14.6 h
same,MRT last,[1]; [4],14.3 h
same,MRT inf,"[1]; sc, 1 mg/kg, CD-1 mouse, S.C.",16.2 h
same,MRT last,"[1]; sc, 1 mg/kg, CD-1 mouse, S.C.",16.1 h
